Assay results reported in patent publication US20250250355A1 (BIOSION, published 2025).
Where two headings read alike, the source gives them in different places.

Tests used:
[1] = target: T1, recombinant human SIRPα-Fc protein (human, biotin-labeled (sites not given)); test: capture ELISA, antibody captured on anti-mouse IgG F(ab')2, biotin-labeled human SIRPα-Fc in solution, OD(450-630); curve not visible in the scan
T1 construct: also called biotin-labeled human SIRPα-Fc protein

[2] = target: T2, full length human SIRPα on cell membranes (HEK293-SIRPα cells; 293F-SIRPα cells) (human, UniProt P78324 31-504); test: cell based blocking FACS on 293F-SIRPα cells; blocked ligand: human CD47 protein (CD47-Fc), MFI; curve not visible in the scan
T2 construct: whole, on cells; also called cell surface human SIRPα; cell surface SIRPα
T2 sequence (P78324 31-504): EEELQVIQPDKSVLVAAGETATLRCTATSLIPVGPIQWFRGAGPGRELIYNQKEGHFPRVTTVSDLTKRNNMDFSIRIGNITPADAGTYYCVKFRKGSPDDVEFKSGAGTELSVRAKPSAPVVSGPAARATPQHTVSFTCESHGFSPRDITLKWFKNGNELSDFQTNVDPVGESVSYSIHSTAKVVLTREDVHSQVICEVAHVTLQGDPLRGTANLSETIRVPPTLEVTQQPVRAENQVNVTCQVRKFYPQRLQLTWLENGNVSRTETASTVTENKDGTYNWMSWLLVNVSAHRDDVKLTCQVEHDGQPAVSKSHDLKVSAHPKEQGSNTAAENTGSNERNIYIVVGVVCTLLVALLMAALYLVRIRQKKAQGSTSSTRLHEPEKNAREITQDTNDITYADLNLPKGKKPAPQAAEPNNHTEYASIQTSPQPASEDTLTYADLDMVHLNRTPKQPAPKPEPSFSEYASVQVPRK

[3] = target: human SIRPα-isoform 2-his protein (human); test: indirect ELISA on coated human SIRPα-isoform 2-his, OD(450-630); curve not visible in the scan
Sequence of human SIRPα-isoform 2-his protein (human) (chain, as listed by the source limits assumed): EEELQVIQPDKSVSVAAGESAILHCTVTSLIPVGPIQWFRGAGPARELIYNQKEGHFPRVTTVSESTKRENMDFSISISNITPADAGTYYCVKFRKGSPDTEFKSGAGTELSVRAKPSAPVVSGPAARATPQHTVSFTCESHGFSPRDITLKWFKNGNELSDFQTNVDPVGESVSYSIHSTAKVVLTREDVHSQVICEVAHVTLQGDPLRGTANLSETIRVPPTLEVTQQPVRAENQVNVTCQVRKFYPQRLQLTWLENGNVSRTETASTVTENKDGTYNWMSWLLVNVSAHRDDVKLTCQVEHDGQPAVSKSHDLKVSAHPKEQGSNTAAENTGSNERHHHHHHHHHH

[4] = target: T3, human SIRPα protein (soluble, used on 293F-CD47 cells) (human, UniProt P78324 31-370, limits assumed); test: cell based blocking FACS on 293F-CD47 cells; soluble human SIRPα protein blocked from binding cell surface human CD47, MFI; curve not visible in the scan
T3 sequence (P78324 31-370 limits assumed): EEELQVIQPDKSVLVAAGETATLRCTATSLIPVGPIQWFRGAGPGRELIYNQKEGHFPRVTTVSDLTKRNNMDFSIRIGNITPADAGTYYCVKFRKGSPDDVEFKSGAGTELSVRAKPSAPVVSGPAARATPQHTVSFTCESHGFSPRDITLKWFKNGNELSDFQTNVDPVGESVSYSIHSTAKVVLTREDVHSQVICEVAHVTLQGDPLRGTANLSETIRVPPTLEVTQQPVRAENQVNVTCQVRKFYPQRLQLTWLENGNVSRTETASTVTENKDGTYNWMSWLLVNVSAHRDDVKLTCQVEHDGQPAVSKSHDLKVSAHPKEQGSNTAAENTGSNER

[5] = target: T2, full length human SIRPα on cell …; test: cell based blocking FACS on 293F-SIRPα cells; blocked ligand: biotin-labeled human CD47-Fc, MFI
[6] = target: T4, human SIRPα-V8-his protein (human, UniProt P78324 31-370, limits assumed); test: indirect ELISA on coated human SIRPα-V8-his, OD(450-630); curve flat at the baseline (see non_binding)
T4 sequence (P78324 other isoform, or with tags, fused parts or gaps limits assumed): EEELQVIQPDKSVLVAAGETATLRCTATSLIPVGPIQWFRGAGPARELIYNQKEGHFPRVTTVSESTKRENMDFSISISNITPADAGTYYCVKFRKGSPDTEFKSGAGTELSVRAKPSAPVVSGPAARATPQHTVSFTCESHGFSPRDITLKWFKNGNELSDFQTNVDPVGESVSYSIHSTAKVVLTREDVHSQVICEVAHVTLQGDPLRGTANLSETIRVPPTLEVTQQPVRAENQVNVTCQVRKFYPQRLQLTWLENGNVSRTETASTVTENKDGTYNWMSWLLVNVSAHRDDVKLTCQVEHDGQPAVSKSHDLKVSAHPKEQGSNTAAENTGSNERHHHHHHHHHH

human SIRPα-his protein [7] = target: T5, human SIRPα-his protein (human, UniProt P78324 31-370); test: SPR (Biacore T200); antibody captured on Protein A chip, human SIRPα-his flowed from 200 nM; 1:1 Langmuir fit
T5 sequence (P78324 other isoform, or with tags, fused parts or gaps limits assumed): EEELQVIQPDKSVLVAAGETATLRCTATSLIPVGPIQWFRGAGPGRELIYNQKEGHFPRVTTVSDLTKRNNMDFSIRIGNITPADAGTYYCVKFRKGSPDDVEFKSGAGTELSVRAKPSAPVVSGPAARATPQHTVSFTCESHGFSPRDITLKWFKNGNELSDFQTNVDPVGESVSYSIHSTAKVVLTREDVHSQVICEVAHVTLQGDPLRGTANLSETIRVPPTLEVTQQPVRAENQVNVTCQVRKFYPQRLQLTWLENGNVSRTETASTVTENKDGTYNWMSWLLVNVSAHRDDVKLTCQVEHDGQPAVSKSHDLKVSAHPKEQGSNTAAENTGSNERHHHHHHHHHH

[8] = target: human SIRPα-isoform 2-his protein (human); test: indirect ELISA on coated human SIRPα-isoform 2-his, OD(450-630); curve not visible in the scan; remark: listed apart in the source
[9] = target: T6, full length human SIRPβ on cell membranes (HEK293-SIRPβ cells; 293F cells expressing human SIRPβ) (human, UniProt O00241 30-398); test: cell based binding FACS on HEK293-SIRPβ cells, MFI
T6 construct: whole, on cells; also called cell surface human SIRPβ
T6 sequence (O00241 30-398): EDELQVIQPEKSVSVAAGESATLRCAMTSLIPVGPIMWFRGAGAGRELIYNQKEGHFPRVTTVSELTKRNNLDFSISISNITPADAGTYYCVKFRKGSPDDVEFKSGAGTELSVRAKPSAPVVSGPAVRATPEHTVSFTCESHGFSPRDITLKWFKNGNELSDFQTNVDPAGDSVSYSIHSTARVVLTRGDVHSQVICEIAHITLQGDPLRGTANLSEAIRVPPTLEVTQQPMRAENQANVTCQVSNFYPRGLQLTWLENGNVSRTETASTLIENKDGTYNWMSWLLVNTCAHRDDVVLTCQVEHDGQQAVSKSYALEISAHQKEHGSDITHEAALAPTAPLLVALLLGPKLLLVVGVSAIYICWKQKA

[10] = target: T2, full length human SIRPα on cell …; test: cell based binding FACS on 293F cells expressing human SIRPα, MFI; curve not visible in the scan
human SIRPα-his protein [11] = target: T5, human SIRPα-his protein; test: competitive ELISA on coated human SIRPα-his; blocked ligand: biotin-labeled human CD47-his, OD(450-630); curve not assignable in the scan
[12] = target: T6, full length human SIRPβ on cell …; test: cell based binding FACS on 293F cells expressing human SIRPβ, MFI; curve not visible in the scan
[13] = target: T2, full length human SIRPα on cell …; test: cell based blocking FACS on 293F-SIRPα cells; blocked ligand: human CD47 protein (CD47-Fc), MFI; curve not visible in the scan; remark: listed apart in the source
[14] = target: T6, full length human SIRPβ on cell …; test: cell based binding FACS on 293F cells expressing human SIRPβ, MFI; curve not visible in the scan; remark: listed apart in the source
[15] = target: T2, full length human SIRPα on cell …; test: cell based binding FACS on HEK293-SIRPα cells, MFI
[16] = target: T2, full length human SIRPα on cell …; test: cell based binding FACS on 293F cells expressing human SIRPα, MFI; curve not visible in the scan; remark: listed apart in the source
[17] = target: T7, cynomolgus SIRPα-his protein (cynomolgus); test: indirect ELISA on coated cynomolgus SIRPα-his, OD(450-630); curve not visible in the scan
T7 construct: also called Cyno SIRPα-his; monkey SIRPα
T7 chain: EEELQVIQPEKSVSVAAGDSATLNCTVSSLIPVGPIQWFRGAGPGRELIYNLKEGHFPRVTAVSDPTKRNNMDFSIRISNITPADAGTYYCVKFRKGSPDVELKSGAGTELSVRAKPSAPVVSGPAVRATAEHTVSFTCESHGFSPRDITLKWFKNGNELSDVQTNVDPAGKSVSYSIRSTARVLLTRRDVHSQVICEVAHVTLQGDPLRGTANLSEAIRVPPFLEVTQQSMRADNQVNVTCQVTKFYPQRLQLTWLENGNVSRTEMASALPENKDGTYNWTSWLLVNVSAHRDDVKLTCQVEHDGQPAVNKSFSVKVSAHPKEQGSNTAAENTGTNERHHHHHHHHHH

[18] = target: T4, human SIRPα-V8-his protein; test: indirect ELISA on coated human SIRPα-V8-his, OD(450-630); curve not visible in the scan
[19] = target: human SIRPα-isoform 2-his protein (human); test: indirect ELISA on coated human SIRPα-isoform 2-his, OD(450-630); curve flat at the baseline (see non_binding)
human SIRPβ-his protein = human SIRPβ-his protein (human, UniProt O00241 30-371); test: SPR (Biacore T200); antibody captured on Protein A chip, human SIRPβ-his flowed from 200 nM; 1:1 Langmuir fit
Sequence of human SIRPβ-his protein (O00241 other isoform, or with tags, fused parts or gaps limits assumed): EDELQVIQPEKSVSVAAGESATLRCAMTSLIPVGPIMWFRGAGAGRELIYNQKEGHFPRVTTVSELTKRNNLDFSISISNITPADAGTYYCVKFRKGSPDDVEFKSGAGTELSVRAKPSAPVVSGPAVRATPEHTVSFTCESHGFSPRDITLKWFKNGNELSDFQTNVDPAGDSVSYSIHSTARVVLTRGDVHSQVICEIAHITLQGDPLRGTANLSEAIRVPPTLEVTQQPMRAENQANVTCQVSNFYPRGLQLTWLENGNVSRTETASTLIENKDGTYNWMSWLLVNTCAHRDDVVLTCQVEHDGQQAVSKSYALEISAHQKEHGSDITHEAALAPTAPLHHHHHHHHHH

[20] = target: T3, human SIRPα protein (soluble, used on …); test: cell based blocking FACS on 293F-CD47 cells; soluble human SIRPα protein blocked from binding cell surface human CD47, MFI; curve not visible in the scan; remark: listed apart in the source
[21] = target: T7, cynomolgus SIRPα-his protein; test: indirect ELISA on coated cynomolgus SIRPα-his, OD(450-630); curve not visible in the scan

T1 sequence (chain, as listed by the source limits assumed): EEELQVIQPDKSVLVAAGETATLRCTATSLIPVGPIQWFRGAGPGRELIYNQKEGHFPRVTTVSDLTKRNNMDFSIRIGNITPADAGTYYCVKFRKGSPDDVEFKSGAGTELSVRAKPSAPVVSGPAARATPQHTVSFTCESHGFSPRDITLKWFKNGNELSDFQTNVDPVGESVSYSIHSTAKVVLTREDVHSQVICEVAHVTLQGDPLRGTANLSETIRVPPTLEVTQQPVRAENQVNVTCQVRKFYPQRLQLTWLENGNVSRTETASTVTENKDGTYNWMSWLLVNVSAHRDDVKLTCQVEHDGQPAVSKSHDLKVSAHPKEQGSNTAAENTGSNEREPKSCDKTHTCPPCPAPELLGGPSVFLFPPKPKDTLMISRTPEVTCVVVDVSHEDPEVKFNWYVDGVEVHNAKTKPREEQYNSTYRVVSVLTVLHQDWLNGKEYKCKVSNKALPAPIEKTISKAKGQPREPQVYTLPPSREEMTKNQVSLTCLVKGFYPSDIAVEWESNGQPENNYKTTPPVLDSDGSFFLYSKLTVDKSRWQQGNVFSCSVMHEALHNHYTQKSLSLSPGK

EC50 [1]: 0.249 nM
IC50 [2]: 1.83 nM
EC50 [3]: ~4000 nM
IC50 [4]: 0.386 nM
IC50 [5]: 0.338 nM
EC50 [6]: 12.2 nM
Kd (human SIRPα-his protein [7]): 26.7 nM
koff (human SIRPα-his protein [7]): 0.00775 s⁻¹
kon (human SIRPα-his protein [7]): 290000 M⁻¹ s⁻¹
EC50 [8]: 15.2 nM
EC50 [9]: 0.509 nM
EC50 [10]: 0.545 nM
IC50 (human SIRPα-his protein [11]): 3.92 nM
EC50 [12]: 0.482 nM
IC50 [13]: 1.9 nM
EC50 [14]: 0.46 nM
EC50 [15]: 0.633 nM
EC50 [16]: 0.585 nM
EC50 [17]: ~16.6 nM
EC50 [18]: ~167 nM
EC50 [19]: ~11 nM
Kd (human SIRPβ-his protein): 30.5 nM
koff (human SIRPβ-his protein): 0.00928 s⁻¹
kon (human SIRPβ-his protein): 304000 M⁻¹ s⁻¹
IC50 [20]: 0.361 nM
EC50 [21]: ~7840 nM
B1: BI-765063 (antibody, human IgG4 S228P, kappa, V domains shown)
VH: EVQLVQSGAEVKKPGESLRISCKASGYSFTSYWVHWVRQMPGKGLEWMGNIDPSDSDTHYSPSFQGHVTLSVDKSISTAYLQLSSLKASDTAMYYCVRGGTGTLAYFAYWGQGTLVTVSS
VL: DVVMTQSPLSLPVTLGQPASISCRSSQSLVHSYGNTYLYWFQQRPGQSPRLLIYRVSNRFSGVPDRFSGSGSGTDFTLKISRVEAEDVGVYYCFQGTHVPYTFGGGTKVEIKR
notes: also called BM5
